Test results reported in US20120135923A1 (IPSEN PHARMA S A S, published 2012).
“And” between values parts separate entries of the source, which are not always exact repeats. Identical values can stand only once. Bridge positions count the residues as written; N and C are the ends. Square brackets hold non-standard residues; d marks the D form. Ends that are not written are not given here. 1Nal = N[C@@H](Cc1cccc2ccccc12)C(=O)O; 2Nal = N[C@@H](Cc1ccc2ccccc2c1)C(=O)O; d2Nal = N[C@H](Cc1ccc2ccccc2c1)C(=O)O; Bta = N[C@@H](Cc1csc2ccccc12)C(=O)O; hCha = N[C@@H](CCC1CCCCC1)C(=O)O; dChg = N[C@@H](C(=O)O)C1CCCCC1; dTle = CC(C)(C)[C@@H](N)C(=O)O; Nle = CCCC[C@H](N)C(=O)O; Ac5c = NC1(C(=O)O)CCCC1; Apc = not defined here; Ava = NCCCCC(=O)O; GABA = NCCCC(=O)O; βAla = NCCC(=O)O

B1: Ac-c(Cys-Glu-His-D-2-Nal-Arg-2-Nal-Ala-Cys)-Pro-Pro-Lys-Asp-β-Ala-Tyr-Gly-Arg-Lys-Lys-Arg-Arg-Gln-Arg-Arg-Arg-NH2 (peptide)
peptide: CEHXRXACPPKDXYGRKKRRQRRR
modifications: N-terminal Ac; D-2-Nal at 4; 2-Nal at 6; β-Ala at 13; disulfide Cys1-Cys8; C-terminal NH2
B2: Ac-c(Cys-Glu-His-D-2-Nal-Arg-1-Nal-Ala-Cys)-Pro-Pro-Lys-Asp-β-[…]NH2 (peptide)
peptide: Ac-CEH[d2Nal]R[1Nal]ACPPKD[βAla]YGRRKRRQRRR-NH2
modifications: disulfide 1-8
SMILES: CC(=O)N[C@H]1CSSC[C@@H](C(=O)N2CCC[C@H]2C(=O)N2CCC[C@H]2C(=O)N[C@@H](CCCCN)C(=O)N[C@@H](CC(=O)O)C(=O)NCCC(=O)N[C@@H](Cc2ccc(O)cc2)C(=O)NCC(=O)N[C@@H](CCCNC(=N)N)C(=O)N[C@@H](CCCNC(=N)N)C(=O)N[C@@H](CCCCN)C(=O)N[C@@H](CCCNC(=N)N)C(=O)N[C@@H](CCCNC(=N)N)C(=O)N[C@@H](CCC(N)=O)C(=O)N[C@@H](CCCNC(=N)N)C(=O)N[C@@H](CCCNC(=N)N)C(=O)N[C@@H](CCCNC(=N)N)C(N)=O)NC(=O)[C@H](C)NC(=O)[C@H](Cc2cccc3ccccc23)NC(=O)[C@H](CCCNC(=N)N)NC(=O)[C@@H](Cc2ccc3ccccc3c2)NC(=O)[C@H](Cc2c[nH]cn2)NC(=O)[C@H](CCC(=O)O)NC1=O
B3: Ac-hCha-c(Asp-His-D-Phe-Arg-Trp-Gaba-Lys)-NH2 (peptide)
peptide: Ac-[hCha]DH[dF]RW[GABA]K-NH2
modifications: lactam 2-8
SMILES: CC(=O)N[C@@H](CCC1CCCCC1)C(=O)N[C@H]1CC(=O)NCCCC[C@@H](C(N)=O)NC(=O)CCCNC(=O)[C@H](Cc2c[nH]c3ccccc23)NC(=O)[C@H](CCCNC(=N)N)NC(=O)[C@@H](Cc2ccccc2)NC(=O)[C@H](Cc2c[nH]cn2)NC1=O
B4: Ac-Nle-c(Cys-D-Ala-His-D-Phe-Arg-Trp-Cys)-Doc-Tyr-Gly-Arg-Lys-Lys-Arg-Arg-Gln-Arg-Arg-Arg-NH2 (peptide)
peptide: XCAHFRWCXYGRKKRRQRRR
modifications: N-terminal Ac; Nle at 1; D-Ala at 3; D-Phe at 5; Doc at 9; disulfide Cys2-Cys8; C-terminal NH2
B5: c[Hydantoin(C(O)-(Asp-A5c))-D-2-Nal-Arg-Trp-Lys]-NH2 (peptide)
peptide: D[Ac5c][d2Nal]RWK-NH2
modifications: lactam 1-6; also: hydantoin ring: N-terminal N of Asp1 and backbone N of residue 2 bridged by one C(O), bridge at N via C(O), other end not in the chain
B6: Ac-c(Cys-Glu-His-D-2-Nal-Arg-Trp-Ala-Cys)-Pro-Pro-Lys-Asp-NH2 (peptide)
peptide: Ac-CEH[d2Nal]RWACPPKD-NH2
modifications: disulfide 1-8
SMILES: CC(=O)N[C@H]1CSSC[C@@H](C(=O)N2CCC[C@H]2C(=O)N2CCC[C@H]2C(=O)N[C@@H](CCCCN)C(=O)N[C@@H](CC(=O)O)C(N)=O)NC(=O)[C@H](C)NC(=O)[C@H](Cc2c[nH]c3ccccc23)NC(=O)[C@H](CCCNC(=N)N)NC(=O)[C@@H](Cc2ccc3ccccc3c2)NC(=O)[C@H](Cc2c[nH]cn2)NC(=O)[C@H](CCC(=O)O)NC1=O
B7: Ac-Nle-c(Cys-D-Ala-His-D-Phe-Arg-Trp-Apn-Cys)-NH2 (peptide)
peptide: Ac-[Nle]C[dA]H[dF]RW[Ava]C-NH2
modifications: disulfide 2-9
SMILES: CCCC[C@H](NC(C)=O)C(=O)N[C@H]1CSSC[C@@H](C(N)=O)NC(=O)CCCCNC(=O)[C@H](Cc2c[nH]c3ccccc23)NC(=O)[C@H](CCCNC(=N)N)NC(=O)[C@@H](Cc2ccccc2)NC(=O)[C@H](Cc2c[nH]cn2)NC(=O)[C@@H](C)NC1=O
B8: c[Hydantoin(C(O)-(Asp-Apc))-D-2-Nal-Arg-Trp-Lys]-NH2 (peptide)
peptide: D[Apc][d2Nal]RWK-NH2
modifications: lactam 1-6; reading uncertain; also: hydantoin ring: N-terminal N of Asp1 and backbone N of residue 2 bridged by one C(O), bridge at N via C(O), other end not in the chain, printed as c[Hydantoin(C(O)-(Asp-Apc))-D-2-Nal-Arg-Trp-Lys]-NH2
B9: Ac-Nle-c(Asp-His-D-Phe-Arg-Trp-β-Ala-Lys)-NH2 (peptide)
peptide: Ac-[Nle]DH[dF]RW[βAla]K-NH2
modifications: lactam 2-8
SMILES: CCCC[C@H](NC(C)=O)C(=O)N[C@H]1CC(=O)NCCCC[C@@H](C(N)=O)NC(=O)CCNC(=O)[C@H](Cc2c[nH]c3ccccc23)NC(=O)[C@H](CCCNC(=N)N)NC(=O)[C@@H](Cc2ccccc2)NC(=O)[C@H](Cc2c[nH]cn2)NC1=O

Columns and labels:
[1] = molecular target: T1, human melanocortin receptor subtype 1 (hMC1-R) (human, UniProt Q01726 1-317); assay: [125I]-NDP-α-MSH competition, membranes
T1 construct: whole, on cells; membranes of CHO-K1 cells
Method: (§1) Cellular membranes used for the in vitro receptor binding assays were obtained from transgenic CHO-K1 cells stably expressing hMC-R receptor subtypes 1, 3, 4 or 5. […] The pellets were resuspended in the same buffer and centrifuged at 50,000 g for 10 minutes at approximately 4° C. The washed pellets containing the cellular membranes were stored at approximately −80° C.
(§2) Competitive inhibition of [¹²⁵I](Tyr²)-(Nle⁴-D-Phe⁷)α-MSH ([¹²⁵I]-NDP-α-MSH, Amersham Biosciences®) binding was carried out in polypropylene 96 well plates. Cell membranes (1-10 μg protein/well) prepared as described above were incubated in 50 mM Tris-HCl at pH 7.4 containing 0.2% bovine serum albumin (BSA), 5 mM MgCl₂, 1 mM CaCl₂ and 0.1 mg/mL bacitracin, with increasing concentrations of the test compound and 0.1-0.3 nM […] for approximately 90-120 minutes at approximately 37° C. Bound [¹²⁵I]-NDP-α-MSH ligand was separated from free [¹²⁵I]-NDP-α-MSH by filtration through GF/C glass fiber filter plates (Unifilter®; Packard) presoaked with 0.1% (w/v) polyethylenimine (PEI), using a Packard Filtermate® harvester. Filters were washed three times with 50 mM Tris-HCl at pH 7.4 at a temperature of approximately 0-4° C. and then assayed for radioactivity using a Packard Topcount® scintillation counter. Binding data were analyzed by computer-assisted non-linear regression analysis (XL fit; IDBS).

[2] = molecular target: T2, human melanocortin receptor subtype 5 (hMC5-R) (human, UniProt P33032 1-325); assay: [125I]-NDP-α-MSH competition, membranes
T2 construct: whole, on cells; membranes of CHO-K1 cells
Method: as §1, §2

[3] = molecular target: T3, human melanocortin receptor subtype 3 (hMC3-R) (human, UniProt P41968 1-323); assay: [125I]-NDP-α-MSH competition, membranes
T3 construct: whole, on cells; membranes of CHO-K1 cells
Method: as §1, §2

[4] = molecular target: T4, human melanocortin receptor subtype 4 (hMC4-R) (human, UniProt P32245 1-332); assay: [125I]-NDP-α-MSH competition, membranes
T4 construct: whole, on cells; membranes of CHO-K1 cells
Method: as §1, §2

hMC1-R = molecular target: T5, hMC1-R (human, UniProt Q01726 1-317); assay: competition with [125I]-NDP-α-MSH, CHO-K1 membranes
T5 construct: whole, on cells; Assayed as membranes of CHO-K1 cells expressing the receptor; also called hMC-R receptor subtype 1; melanocyte-specific receptor (MC1-R)
Method: as §1, §2

hMC4-R = molecular target: T6, hMC4-R (human, UniProt P32245 1-332); assay: as above
T6 construct: whole, on cells; Assayed as membranes of CHO-K1 cells expressing the receptor; also called hMC-R receptor subtype 4; melanocortin-4 (MC4-R)
Method: as §1, §2

hMC3-R = molecular target: T7, hMC3-R (human, UniProt P41968 1-323); assay: as above
T7 construct: whole, on cells; Assayed as membranes of CHO-K1 cells expressing the receptor; also called hMC-R receptor subtype 3; melacortin-3 (MC3-R)
Method: as §1, §2

hMC5-R = molecular target: T8, hMC5-R (human, UniProt P33032 1-325); assay: as above
T8 construct: whole, on cells; Assayed as membranes of CHO-K1 cells expressing the receptor; also called hMC-R receptor subtype 5; melanocortin-5 receptor (MC5-R)
Method: as §1, §2

T2 sequence (P33032 whole entry): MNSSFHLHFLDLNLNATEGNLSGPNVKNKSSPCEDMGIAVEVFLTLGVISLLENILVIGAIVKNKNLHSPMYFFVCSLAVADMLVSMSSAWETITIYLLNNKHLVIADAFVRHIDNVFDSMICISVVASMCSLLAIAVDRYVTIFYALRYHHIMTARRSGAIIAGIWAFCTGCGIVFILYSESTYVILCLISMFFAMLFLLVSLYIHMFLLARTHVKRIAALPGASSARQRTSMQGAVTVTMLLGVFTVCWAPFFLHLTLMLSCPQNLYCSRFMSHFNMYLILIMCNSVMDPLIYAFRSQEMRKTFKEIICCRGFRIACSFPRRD
T8 sequence (P33032 whole entry): as above
T6 sequence (P32245 whole entry): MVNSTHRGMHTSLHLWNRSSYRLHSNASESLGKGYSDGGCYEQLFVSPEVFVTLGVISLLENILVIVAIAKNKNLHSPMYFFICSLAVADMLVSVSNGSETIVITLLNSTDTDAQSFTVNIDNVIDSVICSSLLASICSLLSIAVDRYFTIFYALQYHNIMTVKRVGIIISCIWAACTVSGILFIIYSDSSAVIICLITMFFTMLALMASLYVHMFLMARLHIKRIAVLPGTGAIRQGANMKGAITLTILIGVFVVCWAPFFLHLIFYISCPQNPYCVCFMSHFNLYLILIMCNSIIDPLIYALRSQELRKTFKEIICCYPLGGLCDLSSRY
T4 sequence (P32245 whole entry): as above
T1 sequence (Q01726 whole entry): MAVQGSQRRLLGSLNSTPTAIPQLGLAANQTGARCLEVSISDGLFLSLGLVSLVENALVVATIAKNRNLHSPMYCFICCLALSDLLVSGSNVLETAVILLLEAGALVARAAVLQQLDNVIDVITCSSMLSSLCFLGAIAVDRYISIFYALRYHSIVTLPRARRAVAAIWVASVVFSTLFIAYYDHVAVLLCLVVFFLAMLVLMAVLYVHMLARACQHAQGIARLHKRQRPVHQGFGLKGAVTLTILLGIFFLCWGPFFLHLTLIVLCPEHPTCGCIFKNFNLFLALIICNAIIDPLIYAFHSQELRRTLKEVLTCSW
T5 sequence (Q01726 whole entry): as above
T7 sequence (P41968 whole entry): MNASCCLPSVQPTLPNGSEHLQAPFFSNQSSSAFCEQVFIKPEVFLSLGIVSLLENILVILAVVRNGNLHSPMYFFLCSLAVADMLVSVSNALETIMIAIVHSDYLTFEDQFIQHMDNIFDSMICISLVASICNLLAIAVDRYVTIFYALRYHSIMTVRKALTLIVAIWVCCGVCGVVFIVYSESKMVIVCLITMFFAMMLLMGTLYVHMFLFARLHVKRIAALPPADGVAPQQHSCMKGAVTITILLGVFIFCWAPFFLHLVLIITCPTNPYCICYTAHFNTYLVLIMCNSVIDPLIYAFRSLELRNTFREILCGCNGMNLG
T3 sequence (P41968 whole entry): as above

Binder	Ki [1]	Ki [2]	Ki [3]	Ki [4]	Ki (hMC1-R)	Ki (hMC4-R)	Ki (hMC3-R)	Ki (hMC5-R)
B1	1.74 nM	4.38 nM	0.59 nM	0.17 nM	–	–	–	–
B2	1.75 nM	16.8 nM	1.74 nM	0.15 nM	–	–	–	–
Ac-CEH[d2Nal]R[Bta]ACPPKD[βAla]YGRKRRRQRRR-NH2 (disulfide 1-8) [Ac-c(Cys-Glu-His-D-2-Nal-Arg-Bal-Ala-Cys)-Pro-Pro-Lys-Asp-β-[…]NH2]	2.14 nM	–	1.12 nM	0.624 nM	–	–	–	–
Ac-CEH[d2Nal]R[2Nal]ACPPKD[βAla]YGRRKRRQRRR-NH2 (disulfide 1-8)	–	15.3 nM	1.12 nM	0.223 nM	–	–	–	–
Ac-CEH[d2Nal]R[1Nal]ACPPKD[βAla]YGRKRRRQRRR-NH2 (disulfide 1-8)	1.5 nM	–	1.61 nM	0.301 nM	–	–	–	–
B3	–	–	–	–	0.721 nM	56 nM	93.5 nM	747 nM
B4	–	–	0.699 nM	0.596 nM	–	–	–	–
Ac-CEH[d2Nal]R[2Nal]ACPPKD[βAla]RRRRRRQRRR-NH2 (disulfide 1-8)	3.65 nM	–	2.26 nM	0.261 nM	–	–	–	–
Ac-[Nle]C[dTle]H[dF]RWC-NH2 (disulfide 2-8) [Ac-Nle-c(Cys-D-Tle-His-D-Phe-Arg-Trp-Cys)-NH2]	–	–	–	–	12 nM	11.2 nM	85.8 nM	40 nM
B5	9940 nM	–	2390 nM	44.6 nM	–	–	–	–
B6	49.9 nM	218 nM	9 nM	0.569 nM	–	–	–	–
Ac-[Nle]C[dA]H[dF]RW[GABA]C-NH2 (disulfide 2-9) [Ac-Nle-c(Cys-D-Ala-His-D-Phe-Arg-Trp-Gaba-Cys)-NH2]	–	–	–	–	0.848 nM and 0.536 nM	3.76 nM and 3.12 nM	184 nM and 169 nM	956 nM and 358 nM
Ac-[dChg]DH[dF]RW[GABA]K-NH2 (lactam 2-8) [Ac-D-Chg-c(Asp-His-D-Phe-Arg-Trp-Gaba-Lys)-NH2]	–	–	–	–	0.227 nM	2.99 nM	14.5 nM	164 nM
B7	–	–	–	–	1.1 nM	7.58 nM	228 nM	859 nM
B8	1280 nM	–	2760 nM	266 nM	–	–	–	–
Ac-[Nle]C[dA]H[dF]RW[βAla]C-NH2 (disulfide 2-9) [Ac-Nle-c(Cys-D-Ala-His-D-Phe-Arg-Trp-β-Ala-Cys)-NH2]	–	–	–	–	0.995 nM and 1 nM	5.55 nM	287 nM and 227 nM	766 nM and 496 nM
Ac-CEH[d2Nal]R[1Nal]ACPPKD[βAla]RKRRRQRRR-NH2 (disulfide 1-8)	2.12 nM	27.5 nM	3.99 nM	–	–	–	–	–
Ac-RDH[dF]RWAK-NH2 (lactam 2-8) [Ac-Arg-c(Asp-His-D-Phe-Arg-Trp-Ala-Lys)-NH2]	–	–	–	–	0.68 nM	1.01 nM	20.7 nM	783 nM
B9	–	–	–	–	0.0996 nM	0.617 nM	9320 nM	10.9 nM
